# Laboratory results as given in patent US20170157165.
# Biological target: FGF2 (Homo sapiens) (UniProt P09038)
# Assay: cell_activity
# Settings: 5' C6; 3' idT; negative control; HUVEC proliferation, FGF2 0.58 nM
# Chain of FGF2 (Homo sapiens) (P09038 135-288): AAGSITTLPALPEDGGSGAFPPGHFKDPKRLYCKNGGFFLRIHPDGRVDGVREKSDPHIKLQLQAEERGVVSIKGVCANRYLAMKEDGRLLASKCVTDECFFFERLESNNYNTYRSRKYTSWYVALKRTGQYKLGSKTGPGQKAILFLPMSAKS
substance,measurement,value
negative control RNA (Macugen sequence without PEG),IC50,> 0.4 µM
